A short description of this data set: yeast display, Sf9 membrane polyspecificity reagent, FACS + sequencing; frameworks hold sequencing errors. The method, boiled down: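 Nanobodies came from a synthetic yeast display library in Saccharomyces cerevisiae BJ5465, induced with galactose for 36–48 hours and stained for 1 hour at 4 °C with 10% biotinylated, detergent-solubilized Sf9 membrane reagent. Cells were enriched on streptavidin microbeads and then FACS-sorted, with low and high (top ~1%) gates set on anti-HA fluorescence for expression and streptavidin fluorescence for reagent binding. Each polyreactivity label reflects the gate a clone came from. Genes were amplified by colony PCR, sequenced by MiSeq 2 × 250 and filtered by CDR length.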
For “QVQLQESGGGLVQACGSLRLSCAASGYISHADEMGWYRQAPGKEHELVASISNGGSTNYADSVKGRFTMSRDNAKNTVYLQMNSLKSEDTAVYYCAAWTGQVDIHYYWGQGTKVTVSS”, the “polyreactivity (PSR sort gate)” value was “low polyreactivity”.
To “QVQLVESGGGLVQAGGSLRLSCAASGNILWFNAMGWYRQAPGKERELVASITSSGGRTYYADSVKGRFTISRDNAKNTVYLQMNSLKPEETAVYYCAAEYYYGWTYSGGLGFLGYNYWGQGTQVTVSS” belongs “low polyreactivity”; to “LVQLQESGGGLVQAGGSLRLSCAASGTISQGGYMGWYRQAPGKERELVASINVGGSTNYADSVKGRFTISRDNAKNTVYLQMNSLKPEDNAVYYCAVWGRNRLQLSYWGQGTQVTVSS”, “low polyreactivity”; to “QVQLVESGGGLVQAGGSLRLSCAASGRIFGSYVMGWYRQAPGKERELVAAITDGGTTFYADSVKGRFTISRDNAKNTVYLPMNSLKPEDTAVYYCAARQAGYSGRKLYYWGQGTQVTVSS”, “low polyreactivity”.
As for “QVQLVESGGGLVQAGGSLRLSCAASGRIFQGYAMGWYRPAPGKERELLAAITVRGGTTYYADSVKGRFTISRDNAKNTVYLQMNSLKPEDTAVYYCNAAKLIHGYQSVYPGSNSRYYYWGQGTQVTVSS”, the entry is “low polyreactivity”; as for “QDQHVESGGGLVQAGGSLRLICAASGLIFGYYAIGWYRLAPGKERELVAAITSDSSTNYADSVKGRFTISRDNAKNTVYLHMNSLKPVDTAVYYCAADIMTRRGYYYWGHGTQVTVSS”, “high polyreactivity”.
To “QVQLVESGGGLVQAGGSLRLSCAASGRTLRTYGMGWYRQAPGKERELVARITIGGRTYYADSVKGRFTISRDNAKNTVYLQMNSLKPEDTAVYYCAARYAGGTSRILYGYWGQGTQVTVSS” belongs “high polyreactivity”.
As to “QVQLVESGGGLVQAGGSLRLTCAASGSIFTTNAKGWYRPAPGTERELVASITWSGGSTYADSVKGRFTISRDNAKYTVYLQMNILKPEDTAVYYGATDPFYPVPPEYEYWGQGTQVTVSS”, the “polyreactivity (PSR sort gate)” value was “low polyreactivity”.
As for “QVQLVESGGGLVQAGGSLRLSCAASGVNAMGWYRPAPGKEREFVAAITSIGGSTYYADSVKGRFTISRDNAKNTVYLQMNSLKPEDTAVYYCNTDRGPVKVSPLYVSWGQGTQVTLSS”, the entry is “low polyreactivity”; as for “QVQLVESGGGLVQAGGSLRLTCAASGSNFQYYAMGWYRQAPGKERELVAAISSGDTTNYADSVKGRFTISRDNAKNTVYLQMNSLKPEDTAVYYCNAEGGWYDWDDYWGQGTQVTVSS”, “low polyreactivity”; as for “QVQLVESGGGLVQAGGSLRLSCAASGSTFYVYAMGWYRQAPGKERELVAAINFNGGGTYYADSVKGRFTISRDNAMNTVYLQMNSLKPEDTAFYYCNAEDDYTYDRSFGGYKYDYWGQGTQVTVSS”, “low polyreactivity”.
To “QVQLVESGGGLVQAGGSLRLSCAASGSTFSYNAMGWYRQAPGKERELVAAISRGGITNYADSVKGRFTISRDNAKNTVYLQMNSLKPEDTAVYYCNAGYLGGPSYEYWGQGTLVTVSS” belongs “low polyreactivity”; to “QVQLVESGAGLLQAGGSLRLSCAASGFIFVTYAMGWYRQAPGKERELVAAITNSGGTTYYADSVKGRFTISRDNAKNTVYLQMISLKPEDTAVYYCNKAYGAETAHREFVYWGQGTQVTVSS”, “low polyreactivity”.
To “QVQLVESGGGLVQAGGSLRLSCAAYGSTFYAYAMGWYRQAPGKERELVAAITYRDARTYYADSVKGRFTISRDNAKNTVYLQMISLKPEDTAVYYCARKTGFTVRRYDYWGQGTQVTVSS” belongs “high polyreactivity”; to “QVQLVESGGGLVQAGGSLRLSCAASGRNFRDYDMGWYRQAPGKERELGAAITYDGYSTYYADSVKGRFTISRDNAKNTVYLQMNSLKPEDTAVYYCNADDDVTYFTYYSGGLYYWGQGTQVTVSS”, “low polyreactivity”; to “QVQLVESGGGLVQAGGSLRLSCAASGRIFYVNVMGWYRQAPGKERELVAAIYWSDGSTYYADSVKGRFTISRDNAKNTVYLQMNSLKPEDTAVYYCNRRGPYGYKAWAIGTIGDLDYWGQGTQVTVSS”, “low polyreactivity”.
“QVQLVESGGGLVQAGGSLRLSCAASGSILSYYAMGWYRQAPGKERELVAAISKTGGSTYYADSVKGRFTISRDNANNTVYLHMNSLKPEVTAVYYCAAVDNIGRYEYWGQGTQVTVSS”: the “polyreactivity (PSR sort gate)” value is given as “high polyreactivity”.
To “QVQLVESGGGLVQAGGSLRLSCAASGSTIRYYAMGWYRQAPGKERELVAAITKSGGSTYYADSVKGRFTISRDNAKNTVYLQMNSLKPEDTAVYYCAAVRRWYYPALSEHDYWGQGTQVTVSS” belongs “low polyreactivity”; to “QVQLVESGGGLVQAGGSLRLSCAASGSIFKNYAMGWYRQAPGKERELVASITTGASTNYADSVKGLFTISRDNAMNTVYLQMNSLKPEDSAVYYCAAYRPTYYAYYYWGQGTQVTVSS”, “high polyreactivity”; to “QVQLVESGGVLVQAGGSLRLSCAASGSIFCVNAMGWSRQAPGKERELVAAISWRGASTYYADSVKGRFTISRDNAMNTVYLQMNSLKPEDTAVYYCAAKCTGGDPYYAFDYWGQGTHVTVSS”, “low polyreactivity”.
To “QVQLVESGGGLVQAGGSLRLSCAASGRTFLIYAMGWYRQAPGKERELVAAINFSGGNTYYADSVKGRFTISRDNAKNTVYLQMNSLKPEDTAVYYCAARYRIGNNGYEYWGQGTQVTVSS” belongs “low polyreactivity”.
As for “QFQLVESGGGLVQAGGSLRLSCAASGSIFPPYVMGCYRQAPGKERELVATIDSGGSTYYADSVKGRFTISRDNAKNPVYLQINSLKPEDTAVYYCAARQVSVSVHQYGYWGQGTQVTVST”, the entry is “low polyreactivity”.
As for “QVQLVESGGGLVQAGGSLRLSCAASGLTFYNNAMGWYRQAPGKERELVARISSGGSTYYADSVKGRFTISRDNAKNTVYLQMNSLKPEDTADYYCAAGRGYWWWYGYDYWGQGTQVTVSS”, the “polyreactivity (PSR sort gate)” value is “low polyreactivity”.
To “QVQLVESGGGLVQAGGSLRLSCAASGSTFGAYAMGWYRQAPGKERELVAAINRGTSTNYADSVKGRFTISRDNAKNTVYLQMNSLKPEDTAVYYCAVAVLPWQLYSESYAEYDYWGQGTQVTVSS” belongs “low polyreactivity”; to “QVQLVESGGGLVQAAGSLRLSCATSGFTFVSNAMGRYRQPHGKQRELVAAITKRRSGSTYYADSVKGRFTISRDNAKNTVYLQMNSLKPEDTAVYYCDRVPDTDGEYWGQGTQVTVSS”, “high polyreactivity”.
As for “QDQLEETGGGLVHAGGSLRLSCAASGRTFVVYDMGWYRQAPGKERELVAGIRWRGGSTYYADSVKGRFTISRDNAKNSVYLQMNSLKPVDTAVYYCAADVYLVKYDYWGQGTQVTVSS”, the entry is “low polyreactivity”; as for “QVQLVESGGGLVQAGGSLRLTCAASGRTFWYYAMGWYRQAPGKERELVAAISRNGGSTYYEDSVKGRFTISRDNAKNTVYLQMNSLKPEDTAVYYCAATLLRDYDYWGQGTQVTVSS”, “high polyreactivity”.
As for “QVQLVESGGGLVQAGGSLRLSCAASGRIFSVYTMGWYRQAPGKEREFVASITGSAGSTYYADSVKGRFTISRDNAKNTVYLQMNSLKPEDTAVYYCAKRITAWYTYYGYWGQGTQVTVSS”, the entry is “low polyreactivity”; as for “QVQLVESGGGLVQAGGSLRLSCAASGSTFDIYAMGCYRQAPGKERELVAAITFSGGSTYADSVKGRFTISRDNAKNTVYFQMNSLKPEDTAVYYCAVDGGEFSSYGYWGQGTQVTVSS”, “low polyreactivity”.
Take “QVQLVESGGGLVQAGGSLRLSCAASGRTFVGYAMGWYRQAPGKERELVAAISIGGGRTYYADSVKGRFTISRDNAKNTVYLQMNSLKPEDTAVYYCAAVFRQSNRHGGYDYWGQGTQVTVSS”: the “polyreactivity (PSR sort gate)” value is “high polyreactivity”.

The values above are taken from the nanobody polyreactivity screen of Harvey et al. (2022).
